Results: patent publication US5686572, “Domains of extracellular region of human platelet derived growth factor receptor polypeptides” (Cor Therapeutics, Inc., dated 1997)

How the values were obtained:
[1] = molecular target: T1, PDGF BB (Homo sapiens (Human), UniProt P01127); test: solid-phase plate assay, displacement of bound 125I-PDGF BB by unlabeled PDGF BB
Experimental: (§1) This fraction was then applied to Sephacryl S-200 HR (Pharmacia) equilibrated in 0.15M ammonium bicarbonate pH 7.9. The fractions containing receptor (3–10 ng/μl) were detected by SDS-PAGE and Western blotting with a polyclonal rabbit antibody, made by standard methods, against a Domain 1 (D1) segment from the receptor external region. These fractions (3–10 ng/μl) were used to coat the microtiter wells as described above. The wells were then drained, rinsed once with 200 μl each of 0.5% gelatin (BioRad, EIA grade), 25 mM Hepes, 100 mM NaCl, pH 7.4, and incubated for 1–2 h at 24° C. with 150 μl of this same solution. The wells were drained and rinsed twice with 0.3% gelatin, 25 mM Hepes, 100 mM NaCl, pH 7.4 (150 μl each). […] The bound radioactivity remaining was solubilized from the wells in 200 μl 1% SDS, 0.5% BSA, and counted in a gamma-counter. The nonspecific binding was determined in the presence of a 150-fold excess of unlabeled PDGF BB (Amgen) and was about 7% of the total bound ^125I-PDGF.
(§2) Using iodinated PDGF-BB, the specific binding of less than 10 pg of ligand can be detected in an assay volume of […]. […] The nonspecific binding, determined in the presence of a […] of cold PDGF BB, was usually only about 5–10% of the total binding.

[2] = molecular target: T1, PDGF BB; test: solid-phase plate assay, 125I-PDGF BB bound after 4 h at 4° C., dissociation in buffer
Experimental: as §1, §2

[3] = molecular target: T1, PDGF BB; test: competition: soluble receptor fragment against its immobilized form for binding 125I-PDGF BB
Experimental: as §1, §2

[4] = molecular target: T1, PDGF BB; test: solid-phase plate assay at 4° C., 125I-PDGF BB on the receptor fragment coated on polystyrene wells, Scatchard analysis
Experimental: as §1, §2

B1: extracellular region fragment of the type B human PDGF receptor (soluble, PΔ1 construct, D1-D2-D3-D4-D5) (receptor)
chain: LVVTPPGPELVLNVSSTFVLTCSGSAPVVWERMSQEPPQEMAKAQDGTFSSVLTLTNLTGLDTGEYFCTHNDSRGLETDERKRLYIFVPDPTVGFLPNDAEELFIFLTEITEITIPCRVTDPQLVVTLHEKKGDVALPVPYDHQRGFSGIFEDRSYICKTTIGDREVDSDAYYVYRLQVSSINVSVNAVQTVVRQGENITLMCIVIGNDVVNFEWTYPRKESGRLVEPVTDFLLDMPYHIRSILHIPSAELEDSGTYTCNVTESVNDHQDEKAINITVVESGYVRLLGEVGTLQFAELHRSRTLQVVFEAYPPPTVLWFKDNRTLGDSSAGEIALSTRNVSETRYVSELTLVRVKVAEAGHYTMRAFHEDAEVQLSFQLQINVPVRVLELSESHPDSGEQTVRCRGRGMPQPNIIWSACRDLKRCPRELPPTLLGNSSEEESQLETNVTYWEEEQEFEVVSTLRLQH
[1]
  t1/2 of displacement by 150-fold excess of unlabeled PDGF BB: < 1 h
[2]
  t1/2 of dissociation in binding buffer: > 6 h
[3]
  IC50: 5 nM
[4]
  Kd: ~1 nM
